In patent US20230357367A1:

Legend:
Assay in all cases: DELFIA, IgG titrated on captured biotin-peptide
Set-up in all cases: unit not given beside the values
[1] = target: SARS-CoV-2 spike S2 peptide 1143-1162 (stem helix region), biotinylated (SARS-CoV-2)
[2] = target: SARS-CoV-2 spike S2 peptide 1157-1171, biotinylated (SARS-CoV-2)
[3] = target: SARS-CoV-2 spike S2 peptide 1149-1163, biotinylated (SARS-CoV-2)
[4] = target: SARS-CoV-2 spike S2 peptide 1137-1151, biotinylated (SARS-CoV-2)
[5] = target: SARS-CoV-2 spike S2 peptide 1145-1159, biotinylated (SARS-CoV-2)
[6] = target: SARS-CoV-2 spike S2 peptide 1141-1155, biotinylated (SARS-CoV-2)
[7] = target: SARS-CoV-2 spike S2 peptide 1153-1167, biotinylated (SARS-CoV-2)
[8] = target: SARS-CoV-2 spike S2 peptide 1149-1167 (C-terminal end of the stem helix), biotinylated (SARS-CoV-2)
[9] = target: SARS-CoV-2 spike S2 peptide 1133-1147, biotinylated (SARS-CoV-2)

B1: AB-1 (antibody, V domains shown)
VH: EVQLVESGAEVKKPGESLKISCKGSGYTFTRYWIGWVRQMPGKGLEWMGIIYPGDSDVRYSPSFQGHVTISADKSISTAYLQWNSLKASDTAMYYCARLPQYCSKGVCYRWFDPWGQGTLVTVSS
VL: EIVLTQSPSSVSASVGDRVTITCRASQGISSWLAWYQQKPGKAPKLLIYAASSLQSGVPSRFSGSGSGTDFTLTISSLQPEDFATYYCQQGHSFPYTFGQGTNLEIK
B1 showed an AUC [1] of 3.52e+06, an AUC [2] of 30000 and an AUC [3] of 3.52e+06. It also gave an AUC [4] of 21500, an AUC [5] of 1.7e+06 and an AUC [6] of 18000. The AUC [7] was 3.32e+06, the AUC [8] was 3.27e+06 and the AUC [9] was 27100.
